In patent publication US20250136677A1 (ZOETIS SERVICES, published 2025):
Residue numbers refer to the chain shown, from its start.

Legend:
[1] = target: T1, wildtype feline IL-31 protein (Feline_IL31_wildtype) (feline); assay: cell-based or functional assay
T1 chain: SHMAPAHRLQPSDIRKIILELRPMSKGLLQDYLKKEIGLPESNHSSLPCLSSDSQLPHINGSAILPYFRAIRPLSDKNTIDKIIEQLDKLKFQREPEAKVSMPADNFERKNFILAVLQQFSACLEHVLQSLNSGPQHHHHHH

[2] = target: T1, wildtype feline IL-31 protein …; assay: Biacore, feline IL-31 chip, mAb 100 nM, share of points within parent mean +/-3 SD; set-up: key: % of mutant data points within parent mAb mean ±3 SD
From the text: The region of an antibody responsible for antigen recognition represents the paratope. A paratope is created by a combination of amino acids in the complementarity determining regions (CDRs) of both the heavy and light chain variable regions. The binding between antibody and antigen is often mediated by side chains of CDR residues with side chains or carbohydrate moieties of the antigen. To help define critical side chains involved in antibody recognition alanine scanning mutagenesis was performed on each CDR residue in both the heavy and light chain. These mutants were then individually tested for the ability to bind feline IL-31 using the biacore and evaluated for inhibition of IL-31-mediated signaling in the FCWF-4 cell based assay.
The mean response unit of four replicates of the parent mAb+/−3 standard deviations was used to generate parameters to define a threshold of response units comprising both the on- and off-rates antibody binding (FIG. 22). The percentage of data points for each mutant fell within this threshold was then used to define a “% similarity score” (FIG. 23).

[3] = target: T1, wildtype feline IL-31 protein …; assay: cell-based or functional assay
[4] = target: T2, canine IL-31 protein (Canine_IL31) (canine); assay: SPR (Biacore), IL-31 on chip, 1:1 fit
T2 chain: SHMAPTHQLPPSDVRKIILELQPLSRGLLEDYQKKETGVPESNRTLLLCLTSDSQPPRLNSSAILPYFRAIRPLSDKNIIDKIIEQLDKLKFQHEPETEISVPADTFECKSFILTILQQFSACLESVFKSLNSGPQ

[5] = target: T1, wildtype feline IL-31 protein …; assay: SPR (Biacore), IL-31 on chip, 1:1 fit
Procedure: The affinity with which candidate mAbs bind canine and feline IL-31 was determined using surface plasmon resonance (SPR) on a Biacore system (Biocore Life Sciences (GE Healthcare), Uppsala, Sweden). To avoid affinity differences associated with differential surface preparation that can occur when immobilizing antibodies to surfaces; a strategy was employed where IL-31 was directly conjugated to the surface. Immobilization was obtained by amine coupling 5 μg/mL IL-31 using N-hydroxysuccinimide (NHS)/1-Ethyl-3-(3-dimethylaminopropyl) carbodiimide (EDC) chemistry. Chips were quenched with ethanolamine and the affinity with which all candidate mAbs bound to the immobilized IL-31 was evaluated. All curves were fit to a 1:1 model. […] Results for affinity measurements are described herein.

[6] = target: T3, mutant feline IL-31 15H05 protein (Feline_IL31_15H05_mutant) (feline); assay: indirect ELISA, IL-31 protein coated
T3 sequence: T1 chain with P103A, D105A

[7] = target: T2, canine IL-31 protein (Canine_IL31); assay: cell-based or functional assay
[8] = target: T4, equine IL-31 protein (Equine_IL31) (equine); assay: SPR (Biacore), IL-31 surface, single antibody concentration
T4 construct: Recombinant equine IL-31
T4 chain: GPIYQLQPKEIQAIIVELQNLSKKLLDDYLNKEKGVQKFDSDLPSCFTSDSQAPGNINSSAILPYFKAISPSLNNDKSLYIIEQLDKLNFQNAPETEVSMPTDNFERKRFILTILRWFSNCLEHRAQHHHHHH
Procedure: For the indirect ELISA method, antibody binding to wildtype and feline IL-31 15H05 mutant proteins was assessed. All nine canine monoclonal antibodies (ZIL1, ZIL8, ZIL8, ZIL11, ZIL69, ZIL94, ZIL154, ZIL159, and ZIL171) were capable of binding to wildtype feline IL-31 and binding was impacted by mutations in the mAb 15H05 epitope region confirming the correct binding phenotype determined during the initial screening used to identify them. In comparison, the 11E12 antibody bound to the wild-type feline IL-31 and its binding was not impacted by the mutations in the 15H05 epitope region as evidenced by the data in FIG. 4. To confirm binding, biacore analysis was performed using canine, feline, equine, human, feline 15H05 mutant, and feline 11E12 mutant IL-31 proteins as surfaces and a single test concentration of antibody. Similar to ELISA observations, all antibodies tested bound to wildtype feline IL-31. In agreement with the data described above in this section, mouse antibodies 11E12 and 15H05 both bound to canine and feline IL-31 surfaces. Three additional antibodies where shown to have this dual binding property, ZIL69 (partial canine binding), ZIL94, and ZIL159. From this group of nine fully canine antibodies, only ZIL1 and ZIL9 cross-reacted with equine IL-31. Of note, antibody 15H05 was the only one of all assayed herein that bound to canine, feline, and equine IL-31 indicating some level of epitope conservation across the three species. In contrast, none of the antibodies described herein bound to human IL-31. Additional biacore surfaces were used to verify ELISA observations showing differential binding of antibodies to wildtype feline IL-31 and two proteins with mutations in the 15H05 (15H05 mutant) or 11E12 (11E12 mutant) epitopes.

B1: A20 (antibody, V domains shown)
VH: QVLLVQSGAEVRTPGASVKIFCKASGYSFTSYTIHWLRQAPAQGLEWMGNINPTSGYTENNQRFKDRLTLTADTSTNTAYMELSSLRSADTAMYYCARWGFKYDGEWSFDVWGAGTTVTVSS
VL: EIQMTQSPSSLSASPGDRVTITCRASQGISIWLSWYQQKPGNIPKVLINKASNLHAGVPSRFSGSGSGTDFTLTISSLEPEDAATYYCLQSQTYPLTFGGGTKLEIK
% Inhibition Relative to Parent (pSTAT, FCWF-4 cells) [1]: 29%
Binding Similarity score [2]: 31.3

B2: A28 (antibody, V domains shown)
VH: B1 VH
VL: B1 VL with A56I, T97A
% Inhibition Relative to Parent (pSTAT, FCWF-4 cells) [1]: 59.7%
Binding Similarity score [2]: 42.2

B3: A27 (antibody, V domains shown)
VH: B1 VH
VL: B1 VL with A56I, L96A
% Inhibition Relative to Parent (pSTAT, FCWF-4 cells) [1]: 7.2%
Binding Similarity score [2]: 11.7

B4: A24 (antibody, V domains shown)
VH: B1 VH
VL: B1 VL with A56I, T93A
% Inhibition Relative to Parent (pSTAT, FCWF-4 cells) [1]: 56.7%
Binding Similarity score [2]: 100

B5: A23 (antibody, V domains shown)
VH: B1 VH
VL: B1 VL with A56I, Q92A
% Inhibition Relative to Parent (pSTAT, FCWF-4 cells) [1]: 29.2%
Binding Similarity score [2]: 64.8

B6: A25 (antibody, V domains shown)
VH: B1 VH
VL: B1 VL with A56I, Y94A
% Inhibition Relative to Parent (pSTAT, FCWF-4 cells) [1]: 1.3%
Binding Similarity score [2]: 4.4

B7: A26 (antibody, V domains shown)
VH: B1 VH
VL: B1 VL with A56I, P95A
% Inhibition Relative to Parent (pSTAT, FCWF-4 cells) [1]: 43.7%
Binding Similarity score [2]: 20.9

B8: Feline 11E12 1.1 FW2 (antibody, V domains shown)
VH: QVLLVQSGAEVKKPGASVKIFCKASGYSFTYYDINWLRQAPEQGLEWMGWIFPGDGGTKYNETFKGRLTLTADTSTNTVYMELSSLRSADTAMYYCARGGTSVIRDAMDYWGQGALVTVSS
VL: EIQMTQSPSSLSASPGDRVTITCRASESVDNYGISFMHWYQQKPGQPPKLLIYRASNLESGVPSRFSGSGSGTDFTLTISSLEPEDAATYYCQQSNKDPLTFGQGT
notes: Feline 11E12 VL1 with the mouse FW2; Feline heavy and kappa constant regions
IC50, inhibition of feline IL-31-induced STAT3 phosphorylation, canine DH82 cells [3]: 5.66 µg/mL
IC50, inhibition of feline IL-31-induced STAT3 phosphorylation, feline FCWF4 cells [3]: 4.38 µg/mL
koff [4]: 0.000318 s⁻¹
kon [4]: 45200 M⁻¹ s⁻¹
Kd [5]: 0.75 nM
koff [5]: 0.000639 s⁻¹
kon [5]: 852000 M⁻¹ s⁻¹

B9: ZIL1 (recombinant fully canine antibody) (antibody, V domains shown)
VH: EVQLVESGGDLVKPGGSLRLSCVASGFTFSSYGMSWVRQAPGKGLQWVAHINSGGSSTYYADAVKGRFTISRDNAKNTLYLQMNSLRAEDTAVYYCVEVYTTLAAFWTDNFDYWGQGTLVTVSS
VL: QSVLTQPTSVSGSLGQRVTISCSGSTNNIGILAATWYQQLPGKAPKVLVYSDGNRPSGVPDRFSGSKSGNSATLTITGLQAEDEADYYCQSFDTTLDAYVFGSGTQLTVLR
ELISA OD [6]: 0.92 OD

B10: ZTS-927 (antibody)
heavy: QVLLVQSGAEVRTPGASVKIFCKASGYSFTSYTIHWLRQAPAQGLEWMGNINPTSGYTENNQRFKDRLTLTADTSTNTAYMELSSLRSADTAMYYCARWGFKYDGEWSFDVWGAGTTVTVSSASTTAPSVFPLAPSCGTTSGATVALACLVLGYFPEPVTVSWNSGALTSGVHTFPAVLQASGLYSLSSMVTVPSSRWLSDTFTCNVAHPPSNTKVDKTVRKTDHPPGPKPCDCPKCPPPEMLGGPSIFIFPPKPKDTLSISRTPEVTCLVVDLGPDDSDVQITWFVDNTQVYTAKTSPREEQFNSTYRVVSVLPILHQDWLKGKEFKCKVNSKSLPSPIERTISKAKGQPHEPQVYVLPPAQEELSRNKVSVTCLIKSFHPPDIAVEWEITGQPEPENNYRTTPPQLDSDGTYFVYSKLSVDRSHWQRGNTYTCSVSHEALHSHHTQKSLTQSPGK
light: EIQMTQSPSSLSASPGDRVTITCRASQGISIWLSWYQQKPGNIPKVLINKASNLHIGVPSRFSGSGSGTDFTLTISSLEPEDAATYYCLQSQTYPLTFGGGTKLEIKRSDAQPSVFLFQPSLDELHTGSASIVCILNDFYPKEVNVKWKVDGVVQNKGIQESTTEQNSKDSTYSLSSTLTMSSTEYQSHEKFSCEVTHKSLASTLVKSFQRSECQRE
notes: Felinized 15H05 from a single GS plasmid
IC50, inhibition of canine IL-31-induced STAT3 phosphorylation, canine DH82 cells [7]: 23.2 µg/mL
IC50, inhibition of canine IL-31-induced STAT3 phosphorylation, feline FCWF4 cells [7]: 39.6 µg/mL
IC50, inhibition of feline IL-31-induced STAT3 phosphorylation, canine DH82 cells [3]: 1.57 µg/mL
IC50, inhibition of feline IL-31-induced STAT3 phosphorylation, feline FCWF4 cells [3]: 5.26 µg/mL
Kd [5]: 0.614 nM
koff [5]: 2.3e-05 s⁻¹
kon [5]: 37400 M⁻¹ s⁻¹

B11: mouse:canine 11E12 chimera (antibody)
heavy: QVQLQQSGAELVKPGASVKLSCKASGYTFKYYDINWVRQRPEQGLEWIGWIFPGDGGTKYNETFKGKATLTTDKSSSTAYMQLSRLTSEDSAVYFCARGGTSVIRDAMDYWGQGTSVTVSSASTTAPSVFPLAPSCGSTSGSTVALACLVSGYFPEPVTVSWNSGSLTSGVHTFPSVLQSSGLYSLSSMVTVPSSRWPSETFTCNVAHPASKTKVDKPVPKRENGRVPRPPDCPKCPAPEMLGGPSVFIFPPKPKDTLLIARTPEVTCVVVDLDPEDPEVQISWFVDGKQMQTAKTQPREEQFNGTYRVVSVLPIGHQDWLKGKQFTCKVNNKALPSPIERTISKARGQAHQPSVYVLPPSREELSKNTVSLTCLIKDFFPPDIDVEWQSNGQQEPESKYRTTPPQLDEDGSYFLYSKLSVDKSRWQRGDTFICAVMHEALHNHYTQESLSHSPGK
light: DIVLTQSPASLAVSLGQRATISCRASESVDNYGISFMHWYQQKPGQPPKLLIYRASNLESGIPARFSGSGSRTDFTLTINPVETDDVATYYCQQSNKDPLTFGAGTKLELKRNDAQPAVYLFQPSPDQLHTGSASVVCLLNSFYPKDINVKWKVDGVIQDTGIQESVTEQDKDSTYSLSSTLTMSSTEYLSHELYSCEITHKSLPSTLIKSFQRSEC
notes: Mouse variable regions on canine IgG constant regions; made in HEK 293 cells; also called canine chimeric form of 11E12
IC50, inhibition of feline IL-31-induced STAT3 phosphorylation, feline FCWF4 cells [3]: 1.15 µg/mL
Kd [4]: 0.000826 nM
koff [4]: 6.55e-07 s⁻¹
kon [4]: 793000 M⁻¹ s⁻¹
Kd [5]: 0.248 nM
koff [5]: 0.000108 s⁻¹
kon [5]: 437000 M⁻¹ s⁻¹

B12: ZIL171 (recombinant fully canine antibody) (antibody, V domains shown)
VH: EVQLVESGGDLVKPAGSLRLSCVASGFTFRTYVMNWVRQAPGKGLQWVASINGGGSSPTYADAVRGRFTVSRDNAQNSLFLQMNSLRAEDTAIYFCVVSMVGPFDYWGHGTLVTVSS
VL: SSVLTQPPSVSVSLGQTATISCSGKSLSYYYAQWFQQKAGQAPVLVIYKDTERPSGIPDRFSGSSSGNTHTLTISGARAEDEADYYCESAVSSDTIVFGGGTHLTVLR
notes: also called CAN-ZIL171
binding result [8]: no binding
